Measurements taken from article PMC11647477, “Biochemical and genomic evidence for converging metabolic routes of metformin and biguanide breakdown in environmental Pseudomonads” (The Journal of Biological Chemistry, 2024).

Substrate: N=C(N)NC(=N)N
Assay: purified protein
Assay type: biochemical, Pseudomonas sp. KHPS1
Details: 100 mM potassium phosphate, pH 8.0, 25 °C, 0.5 mM NADH, 0.5 mM 2-oxoglutarate, 1.5 U GDH

B1: BguH (Pseudomonas sp. KHPS1) (protein)
chain: MSERNHEKGMLLAIEQALKAVASGEPPFGVVILDAQGELVAATHDEVNTRGDMSAHAETLAVRAACQVRGPSLEGCFLYTTCEPCPMCFTTAWLARIGGVVYATTMDEVHKILGDAQRELRVPVTQMNDLSGEPVTLVKGVLRDRCLQLFREHAATLATTK
notes: N-terminal His6 tag (pET28b), E. coli codon-optimised synthetic gene, E. coli BL21(DE3)-RIPL host
**Q.** Which results are given for B1?
**A.** Km: 620 ± 160 µM; kcat: 8.1 ± 0.8 s⁻¹
